Assay results reported in patent US20180038857A1.

Target: hCXCR3 (human) (UniProt P49682)
Assay: cell-based or functional assay

hCXCR3 (human), sequence (P49682 whole entry): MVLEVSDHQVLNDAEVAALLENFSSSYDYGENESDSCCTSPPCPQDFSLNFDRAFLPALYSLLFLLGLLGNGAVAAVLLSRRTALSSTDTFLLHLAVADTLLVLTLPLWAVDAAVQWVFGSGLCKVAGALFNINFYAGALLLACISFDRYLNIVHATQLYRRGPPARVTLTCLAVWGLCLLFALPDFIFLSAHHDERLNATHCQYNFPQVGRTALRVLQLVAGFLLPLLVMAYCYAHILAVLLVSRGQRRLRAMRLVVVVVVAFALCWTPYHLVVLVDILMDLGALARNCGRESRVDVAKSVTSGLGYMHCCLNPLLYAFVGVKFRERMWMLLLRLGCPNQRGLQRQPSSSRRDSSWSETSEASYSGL

B1: recombinant native ITAC (ligand, UniProt O14625 22-94, looked up)
chain: FPMFKRGRCLCIGPGVKAVKVADIEKASIMYPSNNCDKIEVIITLKENKGQRCLNPKSKQARLIIKKVERKNF
B1 gave an EC50, agonist activity in an Aequorin assay of 0.7 nM.
